This series relates to Escherichia coli TOP10. As to the kind of experiment: shrunken log2 fold change of peptide-encoding DNA abundance (4.5 h post-induction vs induction); higher = less antimicrobial activity (less host growth inhibition). The following applies: time post-induction: 4.5 h; library: site-saturation at positions 5, 18, 19, 20.
Consider RRIRVRPPRLPRPRPRPWWQPRP, for which the “shrunken log2 fold change” value is -0.201.
Regarding RRIRKRPPRLPRPRPRPSIHPRP, the “shrunken log2 fold change” value was -0.551.
Consider RRIRPRPPRLPRPRPRPTQFPRP, for which the “shrunken log2 fold change” value was 0.274.
For RRIRQRPPRLPRPRPRPPSMPRP the value was -0.234; for RRIRPRPPRLPRPRPRPVKFPRP, 0.184.
For RRIRVRPPRLPRPRPRPHSLPRP the value was -0.232; for RRIRKRPPRLPRPRPRPAIEPRP, 0.018; for RRIRCRPPRLPRPRPRPTPKPRP, 0.877.
In the case of RRIRRRPPRLPRPRPRPVTKPRP, the “shrunken log2 fold change” value worked out at 0.28.
For RRIRCRPPRLPRPRPRPTSLPRP the value was -0.167.
To RRIRLRPPRLPRPRPRPTPLPRP belongs 0.296.
Take RRIRDRPPRLPRPRPRPFFPPRP: the “shrunken log2 fold change” value worked out at 0.0715.
To RRIRIRPPRLPRPRPRPHMHPRP belongs -1.05; to RRIRNRPPRLPRPRPRPDFGPRP, -0.0978.
Take RRIRRRPPRLPRPRPRPIPPPRP: the “shrunken log2 fold change” value turned out to be 0.452.
As for RRIRNRPPRLPRPRPRPLYFPRP, the “shrunken log2 fold change” value is -0.477.
Regarding RRIRDRPPRLPRPRPRPLEEPRP, the “shrunken log2 fold change” value was 0.0347.
Consider RRIRIRPPRLPRPRPRPEQHPRP, for which the “shrunken log2 fold change” value was -0.0723.
In the case of RRIRTRPPRLPRPRPRPPFIPRP, the “shrunken log2 fold change” value was -0.177.
To RRIRARPPRLPRPRPRPFKQPRP belongs 0.123; to RRIRSRPPRLPRPRPRPCYNPRP, -0.513.
To RRIRKRPPRLPRPRPRPAMMPRP belongs 1.24; to RRIRNRPPRLPRPRPRPTCFPRP, 0.0784; to RRIRHRPPRLPRPRPRPQKNPRP, -0.3.
RRIRKRPPRLPRPRPRPRVHPRP: the “shrunken log2 fold change” value came out at 0.252.
For RRIRRRPPRLPRPRPRPKKQPRP the value was -0.0969.
With RRIRNRPPRLPRPRPRPEWNPRP, the “shrunken log2 fold change” value amounted to 0.0541.
As for RRIRARPPRLPRPRPRPAQHPRP, the “shrunken log2 fold change” value amounted to 0.326.
As for RRIRLRPPRLPRPRPRPCNIPRP, the “shrunken log2 fold change” value was -0.00101.
To RRIRWRPPRLPRPRPRPVLFPRP belongs -0.0589; to RRIRNRPPRLPRPRPRPFYMPRP, -0.18; to RRIRQRPPRLPRPRPRPRQDPRP, 0.243.
As for RRIRSRPPRLPRPRPRPMLRPRP, the “shrunken log2 fold change” value was 0.123.
To RRIRNRPPRLPRPRPRPEKCPRP belongs -0.0684; to RRIRTRPPRLPRPRPRPHWWPRP, 0.203.
For RRIRMRPPRLPRPRPRPVAIPRP the value was 0.104; for RRIRKRPPRLPRPRPRPTEVPRP, 0.158; for RRIRPRPPRLPRPRPRPEELPRP, 0.0725.
For RRIRLRPPRLPRPRPRPCSIPRP the value was -0.678; for RRIRGRPPRLPRPRPRPLREPRP, 1.85; for RRIRFRPPRLPRPRPRPCNLPRP, -0.264.
Consider RRIRYRPPRLPRPRPRPDGLPRP, for which the “shrunken log2 fold change” value is -0.528.
Turning to RRIRSRPPRLPRPRPRPEAEPRP, the “shrunken log2 fold change” value was determined as 0.841.
For RRIRWRPPRLPRPRPRPYSIPRP the value was -0.296.
Take RRIRMRPPRLPRPRPRPVFQPRP: the “shrunken log2 fold change” value stood at 0.168.
For RRIRRRPPRLPRPRPRPVQLPRP the value was -0.0275.
As to RRIRCRPPRLPRPRPRPSYPPRP, the “shrunken log2 fold change” value is -0.703.
Turning to RRIRFRPPRLPRPRPRPWGSPRP, the “shrunken log2 fold change” value is -0.0689.
To RRIRPRPPRLPRPRPRPPYDPRP belongs -0.173; to RRIRRRPPRLPRPRPRPEFKPRP, 0.0599; to RRIRLRPPRLPRPRPRPINMPRP, -0.482.
To RRIRYRPPRLPRPRPRPMCSPRP belongs -0.116; to RRIRMRPPRLPRPRPRPSGWPRP, 0.934.
For RRIRPRPPRLPRPRPRPQEYPRP the value was -0.151; for RRIRIRPPRLPRPRPRPGFTPRP, -0.329.
On to RRIRERPPRLPRPRPRPPQQPRP, for which the “shrunken log2 fold change” value was found to be 0.00573.
For RRIRGRPPRLPRPRPRPQCPPRP the value was 0.337; for RRIRDRPPRLPRPRPRPWRLPRP, -0.264.
To RRIRRRPPRLPRPRPRPNIAPRP belongs -0.109; to RRIRLRPPRLPRPRPRPMFAPRP, 0.082; to RRIRARPPRLPRPRPRPFIMPRP, -0.507.
Regarding RRIRLRPPRLPRPRPRPPYFPRP, the “shrunken log2 fold change” value was -0.247.
For RRIRPRPPRLPRPRPRPEAVPRP the value was 0.216; for RRIRYRPPRLPRPRPRPCKLPRP, -0.698; for RRIRHRPPRLPRPRPRPTVFPRP, -0.251.
For RRIRERPPRLPRPRPRPAMLPRP, the “shrunken log2 fold change” value is -0.155.
Regarding RRIRVRPPRLPRPRPRPKYRPRP, the “shrunken log2 fold change” value was -0.0331.
To RRIRSRPPRLPRPRPRPFYKPRP belongs -0.426.
As for RRIRFRPPRLPRPRPRPERAPRP, the “shrunken log2 fold change” value was 0.611.
To RRIRDRPPRLPRPRPRPMRAPRP belongs 0.953; to RRIRRRPPRLPRPRPRPGKDPRP, -0.0528; to RRIRMRPPRLPRPRPRPMKKPRP, -0.00637.
In the case of RRIRCRPPRLPRPRPRPFDFPRP, the “shrunken log2 fold change” value is -0.342.
In the case of RRIRKRPPRLPRPRPRPESFPRP, the “shrunken log2 fold change” value stood at 0.0651.
Take RRIRERPPRLPRPRPRPVQPPRP: the “shrunken log2 fold change” value was found to be 0.336.
On to RRIRSRPPRLPRPRPRPSKDPRP, for which the “shrunken log2 fold change” value was -0.61.
For RRIRQRPPRLPRPRPRPAMFPRP the value was 0.0399; for RRIRDRPPRLPRPRPRPYYGPRP, 0.127; for RRIRERPPRLPRPRPRPERFPRP, -0.0509.
To RRIRFRPPRLPRPRPRPIGQPRP belongs 0.00854; to RRIRQRPPRLPRPRPRPDSWPRP, 0.0403.
As to RRIRCRPPRLPRPRPRPQHFPRP, the “shrunken log2 fold change” value was -0.0667.
For RRIRFRPPRLPRPRPRPAQNPRP the value was 0.348; for RRIRGRPPRLPRPRPRPYSEPRP, -0.093.
Turning to RRIRERPPRLPRPRPRPSIFPRP, the “shrunken log2 fold change” value was -0.343.
Consider RRIRTRPPRLPRPRPRPVKQPRP, for which the “shrunken log2 fold change” value is -0.00945.
RRIRERPPRLPRPRPRPEFFPRP: the “shrunken log2 fold change” value was -0.131.
Turning to RRIRRRPPRLPRPRPRPCEDPRP, the “shrunken log2 fold change” value was 0.0155.
To RRIRTRPPRLPRPRPRPEFAPRP belongs 0.0178.
To RRIRPRPPRLPRPRPRPAQIPRP belongs 0.175; to RRIRYRPPRLPRPRPRPKCQPRP, -0.182.
To RRIRRRPPRLPRPRPRPNQFPRP belongs 0.119; to RRIRDRPPRLPRPRPRPACSPRP, 0.386.
With RRIRRRPPRLPRPRPRPQVEPRP, the “shrunken log2 fold change” value worked out at 0.0147.
Consider RRIRARPPRLPRPRPRPNNSPRP, for which the “shrunken log2 fold change” value was -0.483.
For RRIRRRPPRLPRPRPRPLQPPRP the value was 0.873; for RRIRARPPRLPRPRPRPNAQPRP, 0.158.
To RRIRGRPPRLPRPRPRPLMQPRP belongs 0.605; to RRIRERPPRLPRPRPRPDWEPRP, 0.368; to RRIRARPPRLPRPRPRPAQIPRP, -0.0241.
For RRIRHRPPRLPRPRPRPDNSPRP the value was -1.1.
As for RRIRERPPRLPRPRPRPGRRPRP, the “shrunken log2 fold change” value came to 0.0607.
On to RRIRLRPPRLPRPRPRPKWLPRP, for which the “shrunken log2 fold change” value was 0.139.
To RRIRERPPRLPRPRPRPERVPRP belongs -0.0309; to RRIRQRPPRLPRPRPRPYQKPRP, -0.0335.
In the case of RRIRVRPPRLPRPRPRPMMYPRP, the “shrunken log2 fold change” value was found to be 0.00519.
To RRIRMRPPRLPRPRPRPGTWPRP belongs 0.043; to RRIRHRPPRLPRPRPRPDHQPRP, 0.0561.
For the sequence RRIRHRPPRLPRPRPRPLAVPRP, the “shrunken log2 fold change” value was found to be 0.0391.
To RRIRDRPPRLPRPRPRPVYIPRP belongs -0.497.
Turning to RRIRTRPPRLPRPRPRPARGPRP, the “shrunken log2 fold change” value turned out to be 0.407.
To RRIRYRPPRLPRPRPRPCVRPRP belongs 0.0523; to RRIRPRPPRLPRPRPRPYERPRP, 0.0304; to RRIRPRPPRLPRPRPRPQLCPRP, 0.444.
As to RRIRMRPPRLPRPRPRPRLNPRP, the “shrunken log2 fold change” value was found to be 0.305.
For RRIRRRPPRLPRPRPRPPIYPRP the value was 0.786.
To RRIRRRPPRLPRPRPRPLYPPRP belongs -0.0452; to RRIRWRPPRLPRPRPRPTSFPRP, -0.0166; to RRIRMRPPRLPRPRPRPRMWPRP, 1.04.
Turning to RRIRWRPPRLPRPRPRPPVWPRP, the “shrunken log2 fold change” value worked out at 0.478.
To RRIRGRPPRLPRPRPRPRSTPRP belongs 0.978.
As to RRIRHRPPRLPRPRPRPASSPRP, the “shrunken log2 fold change” value was 0.0164.
RRIRNRPPRLPRPRPRPRSNPRP: the “shrunken log2 fold change” value is -0.0866.
For RRIRTRPPRLPRPRPRPRKPPRP, the “shrunken log2 fold change” value is 0.225.
To RRIRSRPPRLPRPRPRPGYSPRP belongs -0.407.

Source of the values: the supplement of paper PMC9112550, “Optimization of the antimicrobial peptide Bac7 by deep mutational scanning” (BMC Biology, 2022).
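Note: peptides expressed intracellularly from a pBAD plasmid library in pooled LB shake-flask culture, induced with 0.3% L-arabinose, DNA abundance read by NGS, three biological replicates, DESeq2 with apeglm shrinkage.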
